{"source": "paper PMC3333781", "about": "“Systematic mapping of two component response regulators to gene targets in a model sulfate reducing bacterium”", "test_in_all_cases": "EMSA; 10 mM Tris-HCl pH 7.5, 1 mM DTT, 50 mM KCl, 5 mM MgCl2, 25% glycerol, 1 ug/ml poly dI-dC, 50-100 fmol biotinylated DNA, 25-30 C, 20 min", "settings_in_all_cases": "protein: recombinant; tags: C-terminal V5-6xHis; chain copies: 2; label: 5'-biotin top strand", "key": {"[1]": {"molecular_target": "T1, DVU1063 response regulator (Desulfovibrio vulgaris Hildenborough, UniProt Q72D66 1-479)", "T1 sequence": "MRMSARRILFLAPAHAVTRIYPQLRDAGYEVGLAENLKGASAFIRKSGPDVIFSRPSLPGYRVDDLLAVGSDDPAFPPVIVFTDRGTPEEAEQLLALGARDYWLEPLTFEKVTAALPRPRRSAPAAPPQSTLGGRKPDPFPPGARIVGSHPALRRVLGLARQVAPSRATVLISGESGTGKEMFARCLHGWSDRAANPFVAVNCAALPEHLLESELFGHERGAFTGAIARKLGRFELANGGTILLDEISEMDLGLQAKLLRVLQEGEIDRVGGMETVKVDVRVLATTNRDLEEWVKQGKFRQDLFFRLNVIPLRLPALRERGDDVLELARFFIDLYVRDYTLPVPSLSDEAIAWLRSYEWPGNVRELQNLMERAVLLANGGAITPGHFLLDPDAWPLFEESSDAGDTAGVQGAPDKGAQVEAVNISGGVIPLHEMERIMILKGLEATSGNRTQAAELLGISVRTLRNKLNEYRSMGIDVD"}, "[2]": {"molecular_target": "T2, DVU1419 response regulator (Desulfovibrio vulgaris Hildenborough, UniProt Q72C65 1-459)", "T2 sequence": "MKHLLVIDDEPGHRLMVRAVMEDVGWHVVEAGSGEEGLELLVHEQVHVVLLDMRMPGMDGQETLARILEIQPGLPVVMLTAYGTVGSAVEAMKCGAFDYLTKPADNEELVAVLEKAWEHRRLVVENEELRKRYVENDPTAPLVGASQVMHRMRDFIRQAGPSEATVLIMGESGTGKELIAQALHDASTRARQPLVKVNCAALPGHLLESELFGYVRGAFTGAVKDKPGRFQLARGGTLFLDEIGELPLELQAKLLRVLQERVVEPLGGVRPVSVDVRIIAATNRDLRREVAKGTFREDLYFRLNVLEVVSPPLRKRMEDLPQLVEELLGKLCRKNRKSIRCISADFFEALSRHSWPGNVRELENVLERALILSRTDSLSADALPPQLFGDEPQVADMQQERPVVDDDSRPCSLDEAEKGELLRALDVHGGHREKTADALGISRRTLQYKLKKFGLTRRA"}, "[3]": {"molecular_target": "T3, DVU2114 response regulator (Desulfovibrio vulgaris Hildenborough, UniProt Q72A83 1-462)", "T3 sequence": "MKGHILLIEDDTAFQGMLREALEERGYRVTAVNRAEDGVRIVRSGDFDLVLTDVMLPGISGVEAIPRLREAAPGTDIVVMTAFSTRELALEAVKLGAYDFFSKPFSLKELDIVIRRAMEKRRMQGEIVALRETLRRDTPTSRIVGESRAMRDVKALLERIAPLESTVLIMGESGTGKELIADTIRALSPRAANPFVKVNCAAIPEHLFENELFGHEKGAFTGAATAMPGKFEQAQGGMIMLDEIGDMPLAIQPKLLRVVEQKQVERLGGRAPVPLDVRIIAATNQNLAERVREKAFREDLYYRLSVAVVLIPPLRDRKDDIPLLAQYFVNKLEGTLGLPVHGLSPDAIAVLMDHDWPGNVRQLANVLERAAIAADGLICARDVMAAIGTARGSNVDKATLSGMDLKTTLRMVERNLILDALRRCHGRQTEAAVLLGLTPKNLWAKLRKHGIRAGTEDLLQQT"}}}
{"binder": "DVU1032 motif mut (dsDNA) DNA 1: GGCATGGTCGGGCACGTGTTTTCGATTGTATCCTG DNA 2: CAGGATACAATCGAAAACACGTGCCCGACCATGCC", "values": [{"measurement": "binding result", "setting": "[1]", "result": "no binding"}]}
{"binder": "DVU1418 motif mut (dsDNA) DNA 1: GCCGTGGCGTACTATGCCATCGTTTGCTCGTTCATGGTGC DNA 2: GCACCATGAACGAGCAAACGATGGCATAGTACGCCACGGC", "values": [{"measurement": "binding result", "setting": "[2]", "result": "no binding"}]}
{"binder": "DVU2116 motif mut (dsDNA) DNA 1: ACCGGGCCACTACACAAATCAATGCTGCCCATCGC DNA 2: GCGATGGGCAGCATTGATTTGTGTAGTGGCCCGGT", "values": [{"measurement": "binding result", "setting": "[3]", "result": "no binding"}]}
